The values below come from paper PMC9122904, “Insights into the client protein release mechanism of the ATP-independent chaperone Spy” (Nature Communications, 2022).

The koff is a measure of how fast the partners let go of each other. Usually kon stands for a measure of how fast the partners come together.

Substitutions are numbered along the chain they refer to. Names may count otherwise.

Test in all cases: BLI; Octet RED96; client biotinylated and loaded on streptavidin sensors; Spy or Spy variant in solution at 0.25, 0.5, 1, 1.5 and 2 μM; 40 mM HEPES, 150 mM NaCl, pH 7.5; Kd calculated as koff/kon
Holding throughout (conditions): both partners purified

Test [1] has as its target T1, Spy D26K K121D R122D (UniProt P77754 24-161, D26K | K121D | R122D).
T1 construct: source: E. coli BL21 (DE3), purified (Ni-NTA, cation exchange, SEC); not shown: His6, N-terminal, cleaved; SUMO, N-terminal, cleaved
T1 sequence (looked up): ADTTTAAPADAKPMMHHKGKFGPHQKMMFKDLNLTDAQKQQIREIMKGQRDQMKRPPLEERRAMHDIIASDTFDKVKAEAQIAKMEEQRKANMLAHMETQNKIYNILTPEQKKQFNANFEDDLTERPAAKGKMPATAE
The method, boiled down:
(§1)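 Association was recorded with an Octet RED96 as streptavidin sensors carrying client proteins, biotinylated with EZ-link NHS-biotin at a 1:1 molar ratio, sat in 40 mM HEPES, 150 mM NaCl, pH 7.5 with 0.25 to 2 μM of the analyte protein (0.25, 0.5, 1, 1.5 and 2 μM). Dissociation followed after transfer to analyte-free buffer. Both wavelength-shift phases were fitted in SigmaPlot 12.0 to obtain koff and the observed association rate, whose dependence on analyte concentration yielded kon, with Kd defined as koff divided by kon.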

Test [2] has as its target T2, Spy D26K H96D (UniProt P77754 24-161, D26K | H96D).
T2 construct: source: E. coli BL21 (DE3), purified (Ni-NTA, cation exchange, SEC); not shown: His6, N-terminal, cleaved; SUMO, N-terminal, cleaved
T2 sequence (looked up): T1 sequence (looked up) with H96D, D121K, D122R
The method in brief: as §1

In test [3] the target is T3, Spy_(29-124) K75D (UniProt P77754 52-147, K75D).
T3 construct: source: E. coli BL21 (DE3), purified (Ni-NTA, cation exchange, SEC); not shown: His6, N-terminal, cleaved; SUMO, N-terminal, cleaved
T3 sequence (looked up): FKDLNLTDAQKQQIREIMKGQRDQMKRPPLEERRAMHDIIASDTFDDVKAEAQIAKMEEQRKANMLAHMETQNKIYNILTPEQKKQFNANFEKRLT

Test [4] concerns the target T4, Spy_(29-124) R50D (UniProt P77754 52-147, R50D).
T4 construct: source: E. coli BL21 (DE3), purified (Ni-NTA, cation exchange, SEC); not shown: His6, N-terminal, cleaved; SUMO, N-terminal, cleaved
T4 sequence (looked up): T3 sequence (looked up) with R22D, D47K

Test [5] has as its target T5, Spy_(29-124) H96D (UniProt P77754 52-147, H96D).
T5 construct: source: E. coli BL21 (DE3), purified (Ni-NTA, cation exchange, SEC); not shown: His6, N-terminal, cleaved; SUMO, N-terminal, cleaved
T5 sequence (looked up): T3 sequence (looked up) with D47K, H68D

Test [6] has as its target T6, Spy_(29-124) R89D (UniProt P77754 52-147, R89D).
T6 construct: source: E. coli BL21 (DE3), purified (Ni-NTA, cation exchange, SEC); not shown: His6, N-terminal, cleaved; SUMO, N-terminal, cleaved
T6 sequence (looked up): T3 sequence (looked up) with D47K, R61D

Test [7] addresses T7, Spy_(29-124) K121D R122D (UniProt P77754 52-147, K121D | R122D).
T7 construct: source: E. coli BL21 (DE3), purified (Ni-NTA, cation exchange, SEC); not shown: His6, N-terminal, cleaved; SUMO, N-terminal, cleaved
T7 sequence (looked up): T3 sequence (looked up) with D47K, K93D, R94D

Test [8] deals with T8, Spy_(29-124) R61D R62D (UniProt P77754 52-147, R61D | R62D).
T8 construct: source: E. coli BL21 (DE3), purified (Ni-NTA, cation exchange, SEC); not shown: His6, N-terminal, cleaved; SUMO, N-terminal, cleaved
T8 sequence (looked up): T3 sequence (looked up) with R33D, R34D, D47K

For test [9], the target named is T9, Spy_(29-124) K54D R55D (UniProt P77754 52-147, K54D | R55D).
T9 construct: source: E. coli BL21 (DE3), purified (Ni-NTA, cation exchange, SEC); not shown: His6, N-terminal, cleaved; SUMO, N-terminal, cleaved
T9 sequence (looked up): T3 sequence (looked up) with K26D, R27D, D47K

B1: Im7 H40W L53A I54A (natural protein)
chain: MELKNSISDYTEAEFVQLLKEIEKENVAATDDVLDVLLEWFVKITEHPDGTDAAYYPSDNRDDSPEGIVKEIKEWRAANGKPGFKQG
modifications: biotin (EZ-link NHS-biotin, 1:1 molar ratio of biotin to protein)
notes: Im7 (colicin E7 immunity protein) with H40W L53A I54A; Spy was made with an N-terminal His6-SUMO tag that was cleaved; also called Im7AAW; partially folded client; source: purified by a similar procedure to Spy
As for B1, the koff in test [1] was 0.202 s⁻¹; in test [2], 0.172 s⁻¹. The kon was 156000 M⁻¹ s⁻¹ in test [3]; 178000 M⁻¹ s⁻¹ in test [4]; 185000 M⁻¹ s⁻¹ in test [5]; 48000 M⁻¹ s⁻¹ in test [6]; 188000 M⁻¹ s⁻¹ in test [7]; 74000 M⁻¹ s⁻¹ in test [8]. For the same molecule, the association rate constant (kon) in test [9] is 126000 M⁻¹ s⁻¹.
